According to patent US20160355576A1:

Legend:
[1] = biological target: human wild-type TTR protein in native conformation (human) (UniProt P02766); test: SPR, antibody captured by anti-human IgG-Fc, TTR 3.2-316 nM, Langmuir 1:1 fit
[2] = biological target: misfolded-aggregated human wild-type TTR (human), P02766; test: direct ELISA, antigen coated at 10 µg/ml; conditions: remark: other sources report otherwise
[3] = biological target: misfolded-aggregated recombinant V30M-TTR (human), P02766; test: direct ELISA, antigen coated at 10 µg/ml; conditions: remark: other sources report otherwise
[4] = biological target: native TTR-V30M (human), P02766; test: SPR, antibody captured by anti-human IgG-Fc, TTR 3.2-316 nM, Langmuir 1:1 fit; conditions: remark: other sources report otherwise
[5] = biological target: misfolded-aggregated human wild-type TTR (human), P02766; test: as above; conditions: remark: other sources report otherwise
[6] = biological target: native TTR-L55P (human), P02766; test: as above; conditions: remark: other sources report otherwise

Kd [1]: > 316 nM
EC50 [2]: 3.9 nM
EC50 [3]: 5 nM
Kd [4]: 33 nM
koff [4]: 0.00024 s⁻¹
kon [4]: 7400 M⁻¹ s⁻¹
Kd [5]: 12 nM
koff [5]: 0.00027 s⁻¹
kon [5]: 23000 M⁻¹ s⁻¹
Kd [6]: > 100 nM
B1: NI-301.35G11 (antibody, V domains shown)
VH: EVQLVESGGGLVQPGGSLRLSCVASGFTFSSYAMSWVRQVPGKGLEWVSSISGSGDTTKYTDSVKGRFTISRDNSKNTVFLQMSSLRAEDTALYYCVKDGSGRIDPFALWGQGTMVTVSS
VL: EIVMTQSPLSLPVTLGQPASISCRSSRSLVYSDGNIYLNWFQQRPGQSPRRLIYKVSNRDSGVPDRFSGSGSDTDFTLRISRVEAEDVGVYYCMQGTHWPRTFGQGTKVEIK
